# The domain aggregation screens of Martell et al. (2025)
# Assay: soluble fraction after stress (log2 fold change); higher = more stays soluble; pooled small domains, quantitative proteomics
# Conditions: stress: 50 degC
# Procedure, shortened: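 The stress applied to every library was 50°C. These custom libraries of small protein domains were pooled and measured at high throughput with quantitative proteomics as the read-out. Aggregation propensity is expressed as the base-two logarithm of the fold change in how much of each protein remains soluble. The higher the value, the more of that protein stays in solution.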
row,Sequence,soluble fraction (log2)
1,HMDVPVEVFMERIVTALREGRKTTFSELMEGKPERGKVIGTFLALLQLSKGQQIQIHQEQRTGEISIEGGA,-0.315
2,HMGGVIEDDRGQWAHPGEVTKINSNNITMKGVDFPVLGISDTGDKKMMQPGKDYKFDGNSVTEYPMA,-0.197
3,HMGVGIAEAMKHVADEDYGDLSSEFQRIFSAVDGGSTLGDAVRAQMRATSSAGLRRTLSVLAMSVE,0.208
4,HMDQNDYMLTRIRNGQMRNKVSVSMPASKIKSAIAAVLKDEGYIENFALNDSSGKPSLIVNLKYYAGQPV,-0.0135
5,HMPPSQRVNRILSLAGITSRRKADEYILEGRVTVNGEVLKEPGAKAVWGTDDIRVDGKPIPALS,0.1
6,HMSGYSTLFTRMSREDAQAVVSLLQDDGIEYRYNDDTGTVQVPSATVDQTRAKLVSAGYPRS,-0.231
7,HMSHGFFTLQSDDLNLLRTVLEGHSSIGDIKIEGIQLVAYLKEPLNGAELNKILFEKGINLSYLVHRK,-2.15
8,HMNNWRRSLEREVTASLARGDRDIFDGLNRSFEAALITKALEHTGGRRIEAATLLGIGRNTLTRKIQDLGL,-1.83
9,HMQKRDQKKRANMLDSLKVGTRIVTIGGIFGEIAKIKDDRIRIKVAEDVEIWIRRAAVGTVIT,-0.207
10,HMPTQTEELRRRIVADVNAGEPGAKLGSERELAERYGTSRSSLRQVLAALQEAGLIDRVIGRSGGIFISH,-0.0372
11,HMDRMIPPYGLEVTYDKTTHIIFPSAVRYVDLGSPNLIAGKADGSENVIRVKATRKNFREETNMSVITE,-0.043
12,HMDSSSYSAKVGTLIQETRQARGMTQAQLAQALGTSQSAINRIEKGGQNISLDMLNRISEVLSSQIVTLNP,-0.0626
13,HMYSYSFTSSEGSTFEGQLIRVEESQVTILRYADQKEFSIPKSRFIEADQVYFERWAIENPQL,-4.33
14,HMGKIFSELTPREIEVVRLIADGLSNQQIAEELFLSNGTVRNHISTILEKTGLEHRTQIAVMWLR,-0.146
15,HMRQDEKTLLYWIAGHLKREGRQITERSARHLVEQVGTDMENLSREMEKLIAYTMGRTEITGQDIDDI,-1.68
16,HMIERKLRKKEHFIASVGEKVKIKNFATETYKGELISADNEKVVVETEFGKEEITYDNILAAATYFE,-0.135
17,HMGQDTTIVVRRGESLLGIAARLLPATDFYTTGELAEGIRTASGMENDRLIPGQTLRVPLNSG,-0.0889
18,HMNIETHIVPKLLAPIRLQEYGVGIFNNIPTKSALKKALKKQLITVDKTVATTATFIKGGETIELAYQ,-1.47
19,HMASEVEVPNVYGMPSSLAERELSAVGLLADYRSRTGTGQQPGTVVHVKPDAGTVVSRGSTVVLFIA,0.00535

row,Sequence,soluble fraction (log2)
1,HMTVLDYNENVLSKVMNAAEINDSDKEAFIAFAKDYNSDDNLYLKKEELETAAGAWNARNVE,0.358
2,HMNTLLYAPKVSPNPFTPNADGINDVVNISYKLLRVISAVPISVEVFDLSGRLIKTLYSGVDPLGEY,0.158
3,HMNEISLKEITIEEDHPWRDKKIKELDLKEHILVAMIRRKDQDIIPNGETKIYKDDILVIYD,0.144
4,HMPRSLGADLRAIRKGRRLTLTDMAEALDRSVGWVSQVERDISTPSISDLRRMAEILDVPVSLLFG,-2.87
5,HMRVLEYTADGSRLDVLLSQDGVLSRSRAAELIKGGAVTVDGRAEGKPSAKPAPGALVRVEVPE,-0.01
6,HMGQISDEETLKTVASRIIDANPDEARKYRSGKTGLLGFFVGQVMKATQGEANPKLASRIVKELLE,-0.0262
7,HMTSSSGTITADWLNVRSGAGTNFSRLGSIAGGTRLTVISVHGEWYKITASFEGEIRTGYVHSQYVQMDGE,-3.96
8,HMGNTMIVILKHEARQEQIDRLKQFLLGMGLRIDESKGENSTILGLVGDTTRVDADLISSLDAVEAVRRV,-0.0449
9,HMWSLLVILQLREGGQRFSQLQRAIPDISQRMLTQTLRKLERDGLVSRKVTPSTPPRVDYAITELGH,-1.04
10,HMFDGYQWLKRDIIRGVYQPEEKLRMSLLTNRYGLGVGPLREALSQLVAEHLVTVVSQKGYRVAPM,-0.112
11,HMQNESGLFTMSDLWEAGLMGSENASRKRAAVGAFLGIGFGNGKQFLKRLNHFGVTKEEWESALEQLGE,-0.684
12,HMTVTKYGKKILEIVSSSRSHMTAEEIFDALRQTYPTVVLATVYNNLNRLWQDDLIRKVSVEGMPDRYD,-1.22
13,HMLLRSEDAIELGKSQLEDALAPYKIETLDTGTVQQLLDSLKLNSLESLYQEIGLGNRMSTIIAHRLLGE,-0.156
14,HMELNILELKSKERKISLEDHLYIKSFNFDNETNEYFYRLAFNSSKDLKNFKATINNDKTISIINFEI,-3.16
15,HMQKWILVNKQGRLSGILDHRAFNTRESATAWFQRTSDISGGTIKIDDYYYVLKNEEYKLLKE,-3.15
16,HMEGLESVVPDLRGKSLKSAAIAAGLSGFALSPEGSGIVYKQSPAPGGRYLKGTLIAVWLRT,-0.513
17,HMGRLTTKIVLYDRIENIVPERRKELVADIEKRIGVKVEVLEIGHVDFVRDAAWLKVSYYLAPGE,-1.06
18,HMLINLGPRIRKERRSKGISQSDFSKNLGISASYLNLLENGRRTLTVPLLIKIGNELNLSLKDL,-0.0339
19,HMNTISEADAKRIALERAGLTAADYVKVDYDQDDNEYEVEMRSGNTEYEVKISGSTGAVLEYDSETD,0.149
